Test results taken from patent US11447574B2.

Target: human IL-17A (human) (UniProt Q16552)

- IC50, picomole, as defined by the cell IL6 test: 1100 picomole
Substance: AIN457 (anti-IL-17A antibody by Novartis)
